T1: CD147-FL-ECD (Asp19-192 of SEQ ID NO: 1) (human, UniProt Q865R3 19-192 (bovine entry))
T1 construct: The Asp19 N-terminus is stated for the hexa-His ECD-FL; also called ECD-FL; CD147 ECD
T1 sequence: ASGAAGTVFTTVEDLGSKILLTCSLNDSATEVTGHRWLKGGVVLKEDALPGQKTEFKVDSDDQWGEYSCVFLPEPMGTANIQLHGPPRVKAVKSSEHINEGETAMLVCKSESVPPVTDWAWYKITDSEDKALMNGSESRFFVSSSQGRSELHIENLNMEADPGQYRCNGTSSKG

T2: native human CD147 on MDA-MB-231 breast carcinoma cells (human, UniProt P35613 140-385)
T2 construct: also called EMMPRIN; MDA-MB-231 cells
T2 sequence: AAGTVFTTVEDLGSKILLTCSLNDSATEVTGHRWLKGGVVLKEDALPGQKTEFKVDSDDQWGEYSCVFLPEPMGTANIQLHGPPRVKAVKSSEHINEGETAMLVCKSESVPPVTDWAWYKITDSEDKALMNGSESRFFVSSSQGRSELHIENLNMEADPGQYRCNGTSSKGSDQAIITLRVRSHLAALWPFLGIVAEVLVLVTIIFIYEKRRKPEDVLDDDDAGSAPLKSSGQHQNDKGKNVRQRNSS

T3: recombinant CD147 ECD-Flag construct (construct #3364, human CD147 ECD1-192) (human, UniProt Q865R3 22-192 (bovine entry))
T3 sequence: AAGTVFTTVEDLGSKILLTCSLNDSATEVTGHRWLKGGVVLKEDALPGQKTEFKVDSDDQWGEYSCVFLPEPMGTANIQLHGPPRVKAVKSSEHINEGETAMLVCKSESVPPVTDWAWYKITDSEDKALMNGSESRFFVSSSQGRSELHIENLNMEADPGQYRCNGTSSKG


Key:
[1] = biological target: T1, CD147-FL-ECD (Asp19-192 of SEQ ID NO: 1); experiment: SPR (Biacore 3000), mAb captured by anti-mouse Fc, CD147-FL-ECD injected
Protocol: Affinity for the CD147 ECD was also measured by surface plasmon resonance (Biacore). Kinetic studies were performed at 25° C. using a BIACORE 3000 (BIAcore, Inc.) surface plasmon resonance (SPR) instrument. Goat anti-mouse Fcy specific antibody (Jackson Immunoresearch laboratories Prod #115-005-071) was covalently attached to carboxymethyl dextran coated gold surfaces (CM-5 Chip, Biacore). The carboxymethyl groups of dextran were activated with N-Ethyl-N′-(3-Dimethylaminopropyl)carbodiimide (EDC) and N-hydroxysuccinimide (NHS). The Ab was attached at pH 4.5 in 10 mM sodium acetate. Any remaining reactive sites on the surface were blocked by reaction with ethanolamine.
For kinetic binding measurements, anti-CD147 mAbs were captured using an anti-mouse Fcy specific antibody at a flow rate of 30 μL/min. Ab capture was followed by injection of CD147-FL-ECD or the N- or C-domain fragments (as described in Example 1) at concentrations between 75 and 300 nM at 60 μL/min. Association data was collected for 2 min followed by 10 min of dissociation. The surface was regenerated with 15 μL of 100 mM H3PO4, followed by 15 μL of 50 mM NaOH at 30 μL/min. All samples were prepared in D-PBS containing 3 mM EDTA and 0.005% surfactant P20. Data reported is the difference in SPR signal between the flow cell containing the captured antibody and a reference cell without captured antibody. Additional instrumental contributions to the signal were removed by subtraction of the data from the blank injection from the reference-subtracted signal. Data were analyzed by fitting association and dissociation phases at all concentrations using the BIAevaluation software (BIAcore, Inc.).

[2] = biological target: T2, native human CD147 on MDA-MB-231 breast …; experiment: live cell binding assay on MDA-MB-231 cells, HRP-conjugated secondary antibody, OD 490, antibody at 10 ug/ml
[3] = biological target: T3, recombinant CD147 ECD-Flag construct …; experiment: cell-based or functional assay

Binder | Kd [1] | binding result [2] | MMP-1 IC50 [3]
4A5(mIgG1) (antibody, V domains shown, Murine IgG1 from hybridoma; also called C1177A; 4A5 mAb) VH: EVQLQQSGPELVKPGASVKISCKASGYTFTDYYMNWVKQSHGKSLEWIGGINPNNGGTSYNQKFKGKATLTVDKSSSTAYMELRSLTSEDSAVYYCARNDGYRGYAMDYWGQGTSVTVSS VL: not shown | 100 nM | binds | –
2C8(mIgG1) (antibody, V domains shown, Murine IgG1 from hybridoma; also called C1170A; C1170) VH: EMKLEESGGGLVQPGGSMKLSCVASGFTFSNYRMNWVRQSPEKGLEWVAQIRLKSYNYATHYAESVKGRFTISRDDSKSSVYLQMNNLRAEDTGIYYCTPDGSDYWGQGTTLTVSS VL: DILMTQSPSSMSVSLGDTVSITCHASQGISSSIGWLQQKPGKSFKGLIYHGTNLEDGVPSRFTGSGSGADYSLTISSLESEDFADYYCVQYAQFPYTFGGGTKLEIK | 5 nM | – | 20 µg/mL
5F6(mIgG1) (antibody, V domains shown, Murine IgG1 from hybridoma; Two light chain V-regions were found for 5F6; also called C1171A; 5F6 mAb) VH: EMKLEESGGGLVQPGGSMKLSCVASGFTFSNYWMNWVRQSPEKGLEWVAQIRLKSYNYATHYAESVKGRFTISRDDSKSSVYLQMNNLRAEDTGIYYCTPDGSDYWGQGTTLTVSS VL: SIVMTQTPKFLLVSAGDRVTITCKASQSVSNDVAWYQQKPGQSPKLLIYYASNRYTGVPDRFTGSGYGTDFTFTISTVQAEDLAVYFCQQDYSSPYTFGGGTKLEIK | 4 nM | – | –
